Earlier results in paper PMC3562316.

Target: IGF1R (Homo sapiens) (UniProt P08069)

Substance: IGF-2 (from UniProt P01344)
- Kd: 0.2 nM
